# Laboratory results taken from patent publication US6150515, “Tat-SF: cofactor for stimulation of transcriptional elongation by HIV-1 Tat” (Massachusetts Institute of Technology, dated 2000).
# Target: HIV-1 Tat, recombinant wild type Tat protein (HIV-1, UniProt P04608)
# Assay: cell-based or functional assay
binder,measurement,value
"Tat-Stimulatory Factor protein Tat-SF1 (pp140) (other, phosphorylated by its associated kinase in the kinase reactions (gamma-32P ATP); sites not stated) MSGTNLDGNDEFDEQLRMQELYGDGKDGDTQTDAGGEPDSLGQQPTDTPYEWDLDKKAWFPKITEDFIATYQANYGFSNDGASSSTANVEDVHARTAEEPPQEKAPEPTDARKKGEKRKAESGWFHVEEDRNTNVYVSGLPPDITVDEFIQLMSKFGIIMRDPQTEEFKVKLYKDNQGNLKGDGLCCYLKRESVELALKLLDEDEIRGYKLHVEVAKFQLKGEYDASKKKKKCKDYKKKLSMQQKQLDWRPERRAGPSRMRHERVVIIKNMFHPMDFEDDPLVLNEIREDLRVECSKFGQIRKLLLFDRHPDGVASVSFRDPEEADYCIQTLDGRWFGGRQITAQAWDGTTDYQVEETSREREERLRGWEAFLNAPEANRGLSVQILSLLRKAGPSRARHFSEHPSTSKMNAQETATGMAFEEPIDEKKFEKTEDGGEFEEGASENNAKESSPEKEAEEGCPEKESEEGCPKRGFEGSCSQKESEEGNPVRGSEEDSPKKESKKKTLKNDCEENGLAKESEDDLNKESEEEVGPTKESEEDDSEKESDEDCSEKQSEDGSEREFEENGLEKDLDEEGSEKELHENVLDKELEENDSENSEFEDDGSEKVLDEEGSEREFDEDSDEKEEEEDTYEKVFDDESDEKEDEEYADEKGLEAADKKAEEGDADEKLFEESDDKEDEDADGKEVEDADEKLFEDDDSNEKLFDEEEDSSEKLFDDSDERGTLGGFGSVEEGPLSTGSSFILSSDDDDDDI","fold activation by Tat of an HIV-1 LTR-CAT reporter (pBennCAT) in HeLa cells co-transfected with pSV-Tat-SF1, relative to empty vector",5.2 fold
